B1: - (Plasmodium falciparum (isolate 3D7)), C0H519 (parent)
chain: MSDQINVKHKIGDTCRKLYSYFKTVNNTSTFIQNGTLTPSEFVDSGDFLVYKFKTWEWQEADKDRVVPYLPENKQFLITKNVPCKQRIKDLNNIVHDLKIVDNDWLLPSYEEDNNPTDIYEYLPNSEYTINDKNIYNYEEEEEDDNCDEAIDINNFYMENNLIKEHDPASINSTSCYSKNMLHDNLMKIRTYDVSITYDKYYQTPRIWLFGYNENGDPLKSEEIFEDILSDYSYKTVTYDPHPCTGVMTASIHPCKHAEAILNVVNNWISEEKEPRHDLYLLFLLKFISGVIPTIEYDFTTDIEIPRDSNAGL
B2: Autophagy-related protein (Plasmodium falciparum (isolate 3D7)), Q8IJK2 (parent)
chain: MPSLKDEVSFENRVAETHKIRSKYPNRIPVVCERANRSNLPIIEKKKFLVPMNMLVGEFKFILHQHINQSAYGSNMKLFRERTIYLFVNNIVPKTGLLMQDLYEMYKDEDGYLYMEYSCESCLG

Variants of: B1
Conditions: with q8ijk2, Q8IJK2

Variant | effect of a mutation on the interaction
MSDQINVKHKIGDTCRKLYSYFKTVNNTSTFIQNGTLTPSEFVDSGDFLVYKFKTWEWQEADKDRVVPYLPENKQFLITKNVPCKQRIKDLNNIVHDLKIVDNDALLPSYEEDNNPTDIYEYLPNSEYTINDKNIYNYEEEEEDDNCDEAIDINNFYMENNLIKEHDPASINSTSCYSKNMLHDNLMKIRTYDVSITYDKYYQTPRIWLFGYNENGDPLKSEEIFEDILSDYSYKTVTYDPHPCTGVMTASIHPCKHAEAILNVVNNWISEEKEPRHDLYLLFLLKFISGVIPTIEYDFTTDIEIPRDSNAGL [W105A] | decreasing interaction

Variants of: B2
Conditions: with c0h519, C0H519

Variant | effect of a mutation on the interaction
MPSLKDEVSFENRVAETHKIRSKYPNRIPVVCERANRSNLPIIEKKEFLVPMNMLVGEFKFILHQHINQSAYGSNMKLFRERTIYLFVNNIVPKTGLLMQDLYEMYKDEDGYLYMEYSCESCLG | disrupting interaction
MPSLKDEVSFENRVAETHEIRSKYPNRIPVVCERANRSNLPIIEKKEFLVPMNMLVGEFKFILHQHINQSAYGSNMKLFRERTIYLFVNNIVPKTGLLMQDLYEMYKDEDGYLYMEYSCESCLG | disrupting interaction
MPSLKDEVSFENRVAETHKIRSKYPNEIPVVCERANRSNLPIIEKKKFLVPMNMLVGEFKFILHQHINQSAYGSNMKLFRERTIYLFVNNIVPKTGLLMQDLYEMYKDEDGYLYMEYSCESCLG | disrupting interaction
MPSLKDEVSFENRVAETHKIRSKYPNRIPVVCERANRSNLPIIEKKKFAVPMNMLVGEFKFILHQHINQSAYGSNMKLFRERTIYLFVNNIVPKTGLLMQDLYEMYKDEDGYLYMEYSCESCLG | decreasing interaction
MPSLKDEVSFENRVAETHKIRSKYPNRIPVVCERANRSNLPIIASAKFLVPMNMLVGEFKFILHQHINQSAYGSNMKLFRERTIYLFVNNIVPKTGLLMQDLYEMYKDEDGYLYMEYSCESCLG | decreasing interaction
